The values that follow come from paper PMC314469, “Protein Interaction Networks by Proteome Peptide Scanning” (PLoS Biology, 2004).

Holding throughout (assay): SPOT array
The target of experiment [1] is T1, Boi1 SH3 (BOI1_YEAST), P38041.
T1 chain: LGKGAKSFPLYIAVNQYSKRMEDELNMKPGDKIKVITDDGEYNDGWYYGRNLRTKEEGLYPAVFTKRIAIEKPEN

Experiment [2] deals with T2, Boi2 SH3 (BOI2_YEAST), P39969.
T2 chain: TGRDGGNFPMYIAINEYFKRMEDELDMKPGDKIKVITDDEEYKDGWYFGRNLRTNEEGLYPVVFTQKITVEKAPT

Experiment [3] has as its target T3, Myo5 SH3 (MYO5_YEAST), Q04439.
T3 chain: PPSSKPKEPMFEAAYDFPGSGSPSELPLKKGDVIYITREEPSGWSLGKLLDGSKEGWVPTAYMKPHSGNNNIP

The target in experiment [4] is T4, Rvs167 SH3 (RV167_YEAST), P39743.
T4 chain: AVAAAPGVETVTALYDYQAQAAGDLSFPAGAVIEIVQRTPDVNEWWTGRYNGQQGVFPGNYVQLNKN

For experiment [5], the target named is Sho1 SH3 (SHO1_YEAST), P40073.
Experiment [6] has as its target T5, Yfr024 SH3 (LSB3_YEAST), P43603.
T5 chain: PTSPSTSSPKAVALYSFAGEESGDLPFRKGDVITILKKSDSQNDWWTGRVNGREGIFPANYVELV

Experiment [7] addresses T6, Yhr016c SH3 (YSC84_YEAST), P32793.
T6 chain: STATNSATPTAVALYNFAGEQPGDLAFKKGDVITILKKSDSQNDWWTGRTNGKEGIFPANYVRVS

Chain of Sho1 SH3 (SHO1_YEAST), P40073 (P40073 295-366): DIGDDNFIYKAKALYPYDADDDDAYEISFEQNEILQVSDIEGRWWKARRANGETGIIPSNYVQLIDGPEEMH

B1: YEL009C 209-222 (peptide)
chain: NRKQRSIPLSPIVP
In the case of B1, the normalised SPOT signal, Boehringer light units (BLU); mean over the file's lines of this peptide in experiment [1] came out at 2120; in experiment [2], 77.3; in experiment [3], 491; in experiment [4], 307; in experiment [5], 183; in experiment [6] it was 1250. The molecule also came in with a normalised SPOT signal, Boehringer light units (BLU); mean over the file's lines of this peptide in experiment [7] of 521.

B2: YOL049W 169-182 (peptide)
chain: NRANKYDPKGPIYN
For B2, the normalised SPOT signal, Boehringer light units (BLU); mean over the file's lines of this peptide in experiment [1] was determined as 545; in experiment [2], 0; in experiment [3], 205; in experiment [4] it was 109; in experiment [5], 21.7; in experiment [6], 58. The molecule further yielded a normalised SPOT signal, Boehringer light units (BLU); mean over the file's lines of this peptide in experiment [7] of 77.6.

B3: YBR055C 389-402 (peptide)
chain: NSFRKILPQEPEIW
Regarding B3, the normalised SPOT signal, Boehringer light units (BLU); mean over the file's lines of this peptide in experiment [1] turned out to be 1170; in experiment [2], 219; in experiment [3], 235; in experiment [4], 524; in experiment [5], 1820; in experiment [6] it was 1280. Besides, the normalised SPOT signal, Boehringer light units (BLU); mean over the file's lines of this peptide in experiment [7] worked out at 1260.

B4: YLR083C 510-523 (peptide)
chain: NQIARQIPFQPWYL
With B4, the normalised SPOT signal, Boehringer light units (BLU); mean over the file's lines of this peptide is 22.9 in experiment [1]; 36.1 in experiment [2]; 248 in experiment [3]; 100 in experiment [4]; 75.8 in experiment [5]; 312 in experiment [6]. Further, the normalised SPOT signal, Boehringer light units (BLU); mean over the file's lines of this peptide in experiment [7] was determined as 50.4.

B5: YKL182W 1009-1022 (peptide)
chain: NPMQKPVPFVPVLD
Take B5: the normalised SPOT signal, Boehringer light units (BLU); mean over the file's lines of this peptide in experiment [1] turned out to be 66.8; in experiment [2], 50.2; in experiment [3] it was 420; in experiment [4], 284; in experiment [5], 191; in experiment [6] it was 2450. Also, the normalised SPOT signal, Boehringer light units (BLU); mean over the file's lines of this peptide in experiment [7] was determined as 299.

B6: YDR107C 515-528 (peptide)
chain: NQIARQIPYQPWYL
For the molecule B6, the normalised SPOT signal, Boehringer light units (BLU); mean over the file's lines of this peptide in experiment [1] was 105; in experiment [2] it was 37.7; in experiment [3], 164; in experiment [4], 33.3; in experiment [5] it was 47.5; in experiment [6], 145. For the same molecule, the normalised SPOT signal, Boehringer light units (BLU); mean over the file's lines of this peptide in experiment [7] turned out to be 42.8.
